Reference: patent US20250017968A1 (CHINA MEDICAL UNIVERSITY, published 2025)

T1: EphA10 antigen (R&D systems) (Homo sapiens (Human), UniProt Q5JZY3 34-565)
T1 construct: Coated antigen in the indirect ELISA; The Biacore assay says only 'EphA 10' without source or form; also called ephrin type-A receptor 10
T1 sequence: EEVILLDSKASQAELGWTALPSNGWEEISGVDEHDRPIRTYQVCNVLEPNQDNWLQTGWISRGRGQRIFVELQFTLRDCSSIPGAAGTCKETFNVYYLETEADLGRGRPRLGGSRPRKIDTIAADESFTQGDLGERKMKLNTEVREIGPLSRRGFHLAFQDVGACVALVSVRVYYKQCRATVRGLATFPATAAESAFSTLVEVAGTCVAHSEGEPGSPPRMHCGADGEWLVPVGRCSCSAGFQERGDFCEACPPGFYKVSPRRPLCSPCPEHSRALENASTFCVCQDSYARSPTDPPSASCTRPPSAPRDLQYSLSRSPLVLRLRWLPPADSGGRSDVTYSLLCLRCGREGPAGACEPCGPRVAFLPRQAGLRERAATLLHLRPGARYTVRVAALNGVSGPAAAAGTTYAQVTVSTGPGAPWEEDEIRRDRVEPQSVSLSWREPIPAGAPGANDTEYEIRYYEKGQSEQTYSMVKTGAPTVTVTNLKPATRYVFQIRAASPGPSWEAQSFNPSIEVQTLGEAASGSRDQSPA

T2: full-length human EphA10 expressed on NIH 3T3 cells (human, UniProt Q5JZY3 34-1008)
T2 construct: whole, on cells
T2 sequence (looked up): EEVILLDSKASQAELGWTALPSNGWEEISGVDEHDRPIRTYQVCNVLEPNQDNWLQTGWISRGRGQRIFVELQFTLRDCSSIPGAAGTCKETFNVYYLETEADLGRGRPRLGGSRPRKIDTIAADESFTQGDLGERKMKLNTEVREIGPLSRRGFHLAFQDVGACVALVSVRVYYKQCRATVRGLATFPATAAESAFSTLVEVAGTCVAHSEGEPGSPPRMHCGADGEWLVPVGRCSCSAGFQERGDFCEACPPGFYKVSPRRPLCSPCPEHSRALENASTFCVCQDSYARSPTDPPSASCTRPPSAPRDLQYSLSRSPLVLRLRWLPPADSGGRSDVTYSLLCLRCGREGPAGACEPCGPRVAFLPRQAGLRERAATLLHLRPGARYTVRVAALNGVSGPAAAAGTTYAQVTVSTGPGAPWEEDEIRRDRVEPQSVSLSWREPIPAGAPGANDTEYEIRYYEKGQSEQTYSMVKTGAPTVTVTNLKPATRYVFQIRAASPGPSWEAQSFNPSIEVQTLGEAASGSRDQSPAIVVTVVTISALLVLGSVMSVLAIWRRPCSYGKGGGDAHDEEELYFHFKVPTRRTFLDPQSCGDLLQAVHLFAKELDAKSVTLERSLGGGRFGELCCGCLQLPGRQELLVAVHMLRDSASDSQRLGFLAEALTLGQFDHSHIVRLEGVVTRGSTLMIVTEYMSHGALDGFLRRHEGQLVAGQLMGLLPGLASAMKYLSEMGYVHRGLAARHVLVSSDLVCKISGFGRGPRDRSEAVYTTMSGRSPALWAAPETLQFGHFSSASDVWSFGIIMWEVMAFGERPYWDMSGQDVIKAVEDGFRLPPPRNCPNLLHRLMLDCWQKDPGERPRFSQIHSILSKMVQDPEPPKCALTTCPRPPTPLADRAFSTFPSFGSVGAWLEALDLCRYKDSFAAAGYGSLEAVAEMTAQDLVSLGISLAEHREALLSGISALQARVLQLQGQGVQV


How the values were obtained:
[1] = biological target: T1, EphA10 antigen (R&D systems); assay: Biacore 8K SPR, global fit to 1:1 binding model, triplicates
From the text: CMU #13 was also subjected to a Biacore assay.

[2] = biological target: T1, EphA10 antigen (R&D systems); assay: indirect ELISA on coated EphA antigen, ScFv-mouse IgG2a antibody titrated
Protocol: ScFv sequences were fused with mouse IgG2a sequence and sub-cloned into pcDNA3.1 plasmid. Three ScFv-mouse IgG2a plasmids were transfected into HEK293 cells. Three ScFv-mouse IgG2a antibodies were purified by protein A resin. Three antibodies were tested for indirect ELISA against coated 9 EPHA antigens (EphA1-8 and 10, R&D systems).

[3] = biological target: T2, full-length human EphA10 expressed on …; assay: FACS on NIH 3T3 cells expressing full-length human EphA10

| Binder | Kd [1] | koff [1] | kon [1] | EC50 (read off the curve) [2] | binding result [3] |
| --- | --- | --- | --- | --- | --- |
| CMU #13 ScFv-mouse IgG2a antibody (Fc fusion, The Biacore assay names only 'CMU #13'; also called anti-EphA10 antibody CMU #13) QVQLVQSGAEVKKPGSSVKVSCKASGGTFSSYAISWVRQAPGQGLEWMGGIIPIFGTANYAQKFQGRVTITADESTSTAYMELSSLRSEDTAVYYCAREGDSYGYYYGMDVWGQGTTVTVSSGGGGSGGGGSGGGGSQPVLTQPPSASGTPGQRVTISCSGSSSNIGSNYVYWYQQLPGTAPKLLIYENYLRPSGVPDRFSGSKTGTSASLAISGLQSEDEADYYCAAWDDSLNGYVFGTGTQLTVLSEPRGPTIKPCPPCKCPAPNLLGGPSVFIFPPKIKDVLMISLSPIVTCVVVDVSEDDPDVQISWFVNNVEVHTAQTQTHREDYNSTLRVVSALPIQHQDWMSGKEFKCKVNNKDLPAPIERTISKPKGSVRAPQVYVLPPPEEEMTKKQVTLTCMVTDFMPEDIYVEWTNNGKTELNYKNTEPVLDSDGSYFMYSKLRVEKKNWVERNSYSCSVVHEGLHNHHTTKSFSRTPGK | 1.79 nM | 0.00288 s⁻¹ | 1.61e+06 M⁻¹ s⁻¹ | ~0.4 nM | – |
| CMU #13 scFv (clone from human B cell-derived scFv phage display library) (scFv) scFv: QVQLVQSGAEVKKPGSSVKVSCKASGGTFSSYAISWVRQAPGQGLEWMGGIIPIFGTANYAQKFQGRVTITADESTSTAYMELSSLRSEDTAVYYCAREGDSYGYYYGMDVWGQGTTVTVSSGGGGSGGGGSGGGGSQPVLTQPPSASGTPGQRVTISCSGSSSNIGSNYVYWYQQLPGTAPKLLIYENYLRPSGVPDRFSGSKTGTSASLAISGLQSEDEADYYCAAWDDSLNGYVFGTGTQLTVLS | – | – | – | – | binds |
